Data published in patent US20210163945, “APTAMERS FOR TARGETING COAGULATION FACTOR XIII AND USES THEREOF” (Chang Gung University, published 2021).

Columns and labels:
[1] = target: Bovine serum albumin (BSA) (Bos taurus, UniProt P02769 P02769:25-607); assay: dot blot, no binding under native or denatured condition; conditions: label: FAM or biotin
[2] = target: T1, Coagulation factor XIII (FXIII) (UniProt P00488;P05160 P00488:2-732,P05160:21-661); assay: dot blot, binds under native and denatured conditions; PBS/Tween 20, BSA block; conditions: chain copies: 2; label: FAM or biotin
T1 sequence 1: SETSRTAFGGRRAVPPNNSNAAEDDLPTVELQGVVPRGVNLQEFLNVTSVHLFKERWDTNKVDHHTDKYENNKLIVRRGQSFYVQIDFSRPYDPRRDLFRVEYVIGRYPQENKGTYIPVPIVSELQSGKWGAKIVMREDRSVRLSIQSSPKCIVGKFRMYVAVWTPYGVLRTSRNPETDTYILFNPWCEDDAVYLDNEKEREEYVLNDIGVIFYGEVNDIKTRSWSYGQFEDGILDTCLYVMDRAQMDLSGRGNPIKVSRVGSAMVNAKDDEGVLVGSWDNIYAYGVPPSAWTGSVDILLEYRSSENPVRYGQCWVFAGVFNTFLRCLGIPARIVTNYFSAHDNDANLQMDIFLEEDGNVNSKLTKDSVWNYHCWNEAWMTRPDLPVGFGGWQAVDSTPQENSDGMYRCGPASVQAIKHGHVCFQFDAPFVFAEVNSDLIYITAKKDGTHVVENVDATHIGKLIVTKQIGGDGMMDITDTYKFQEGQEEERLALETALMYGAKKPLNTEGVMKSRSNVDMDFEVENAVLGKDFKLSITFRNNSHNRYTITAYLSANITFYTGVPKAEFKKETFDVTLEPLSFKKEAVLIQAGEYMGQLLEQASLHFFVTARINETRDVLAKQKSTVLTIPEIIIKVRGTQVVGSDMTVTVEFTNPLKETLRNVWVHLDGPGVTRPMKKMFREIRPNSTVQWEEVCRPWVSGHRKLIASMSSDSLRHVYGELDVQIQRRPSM
T1 sequence 2: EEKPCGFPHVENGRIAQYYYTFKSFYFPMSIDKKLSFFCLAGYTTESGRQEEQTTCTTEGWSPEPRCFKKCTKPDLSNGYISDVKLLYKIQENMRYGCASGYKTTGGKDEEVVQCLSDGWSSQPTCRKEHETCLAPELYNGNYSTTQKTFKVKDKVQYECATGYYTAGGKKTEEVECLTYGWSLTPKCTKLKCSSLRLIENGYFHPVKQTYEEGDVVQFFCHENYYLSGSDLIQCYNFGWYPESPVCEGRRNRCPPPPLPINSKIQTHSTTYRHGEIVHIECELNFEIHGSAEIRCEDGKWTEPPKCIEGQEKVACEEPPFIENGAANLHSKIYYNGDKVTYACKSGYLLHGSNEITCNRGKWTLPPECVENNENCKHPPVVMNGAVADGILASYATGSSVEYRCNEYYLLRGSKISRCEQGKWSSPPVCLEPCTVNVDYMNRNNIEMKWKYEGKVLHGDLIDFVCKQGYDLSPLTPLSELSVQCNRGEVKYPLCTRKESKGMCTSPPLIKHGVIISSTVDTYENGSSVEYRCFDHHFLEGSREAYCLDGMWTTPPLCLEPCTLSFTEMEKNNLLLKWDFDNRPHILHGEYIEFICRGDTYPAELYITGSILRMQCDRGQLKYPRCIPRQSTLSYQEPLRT
Method: Purified FXIII was blotted on a nitrocellulose (NC) membrane, and air-dried for 1 hr. Then a mixture of BSA, PBS, and Polyoxyethylene(20)sorbitan monolaurate (TWEEN™ 20) was added to the NC membrane and incubated for 1 hr, and following biotin-conjugated aptamers were added to the NC membrane and incubated for another 1 hr. The NC membrane was washed thrice using a washing buffer of PBS and Tween 20, and horseradish peroxidase (HRP)-conjugated streptavidin was added to the NC membrane and incubated for 1 hr. For coloration, a substrate of HRP was added to the NC membrane after washing, and the images of the NC membrane were acquired by a X-ray film processor.

Bovine serum albumin (BSA), sequence (P02769 25-607, one chain of several): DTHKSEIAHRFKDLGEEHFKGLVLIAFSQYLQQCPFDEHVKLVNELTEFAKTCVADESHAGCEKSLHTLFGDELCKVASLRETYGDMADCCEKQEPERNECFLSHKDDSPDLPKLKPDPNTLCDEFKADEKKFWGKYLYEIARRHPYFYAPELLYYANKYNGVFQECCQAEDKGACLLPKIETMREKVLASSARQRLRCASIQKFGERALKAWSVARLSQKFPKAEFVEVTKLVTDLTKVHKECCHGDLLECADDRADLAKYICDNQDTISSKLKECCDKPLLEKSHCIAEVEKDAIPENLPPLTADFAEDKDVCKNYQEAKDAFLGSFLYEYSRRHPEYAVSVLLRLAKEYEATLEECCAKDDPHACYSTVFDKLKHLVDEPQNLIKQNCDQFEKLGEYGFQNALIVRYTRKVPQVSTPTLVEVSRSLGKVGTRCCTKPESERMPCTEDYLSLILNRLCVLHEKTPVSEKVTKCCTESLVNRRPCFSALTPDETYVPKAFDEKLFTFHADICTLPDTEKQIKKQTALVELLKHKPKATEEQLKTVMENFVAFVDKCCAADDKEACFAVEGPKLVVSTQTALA

CGCAGCATCATTCGGGTCGGGAAGGGGTGTACGGGGCTGCG (ssDNA) [FAT2]: no binding [1]; binds [2].
